Where a chain is given by its changes, count along the chain named. In names and notes the source's numbering stands.
Tests used:
[1] = molecular target: human MLKL kinase-like domain, phosphor-sites' mutant T357A/S358A (179~471 aa), recombinant (human) (UniProt Q8NB16); assay: cross-linking; purified recombinant MLKL KLD proteins with 500 uM DSG, 30 min, room temperature; stopped with 100 mM Tris-HCl pH 7.5; SDS-PAGE, Coomassie
[2] = molecular target: Flag-tagged human MLKL kinase-like domain, phosphomimic mutant T357ES358D, expressed in HEK293T (human); assay: cross-linking; whole-cell lysates of HEK293T cells expressing Flag-tagged MLKL KLD proteins (24 h); 500 uM DSG 30 min; SDS-PAGE, western blot anti-Flag
[3] = molecular target: Flag-tagged mouse MLKL kinase-like domain, phosphomimic mutant S345D, expressed in HEK293T (mouse) (UniProt Q9D2Y4); assay: as above
[4] = molecular target: the molecule itself; assay: SEC; gel filtration of purified His-Sumo tagged human MLKL (126~181 aa) on Superdex 200; fractions on SDS-PAGE, Coomassie
[5] = molecular target: the molecule itself; assay: SEC; gel filtration of purified recombinant human MLKL KLD proteins on Superdex 75; fractions on SDS-PAGE, Coomassie; standards BSA 67 kDa, ovalbumin 44 kDa, ribonuclease A 14 kDa
[6] = molecular target: the molecule itself; assay: cross-linking; purified recombinant MLKL KLD proteins with 500 uM DSG, 30 min, room temperature; stopped with 100 mM Tris-HCl pH 7.5; SDS-PAGE, Coomassie

Molecule: human MLKL kinase-like domain, phosphor-sites' mutant T357A/S358A (179~471 aa), recombinant (from UniProt Q8NB16 179-471) (domain or fragment)
- stoichiometry N [1]: 2

Molecule: Flag-tagged human MLKL kinase-like domain, phosphomimic mutant T357ES358D, expressed in HEK293T (domain or fragment)
- stoichiometry N [2]: 2

Molecule: Flag-tagged mouse MLKL kinase-like domain, phosphomimic mutant S345D, expressed in HEK293T (from UniProt Q9D2Y4 192-456) (domain or fragment)
- stoichiometry N [3]: 2

B1: His-Sumo tagged human MLKL (126~181 aa), internal coiled-coil region, wild-type (domain or fragment, UniProt Q8NB16 126-181, looked up)
chain: PISQGASWAQEDQQDADEDRRAFQMLRRDNEKIEASLRRLEINMKEIKETLRQYLP
notes: Vector PET-SUMO; also called internal coiled-coil in brace region; source: E. coli BL21(DE3), purified (NTA resin, Superdex 200)
- binding result [4]: binds

B2: human MLKL kinase-like domain, phosphomimic mutant T357E/S358D (179~471 aa), recombinant (domain or fragment, UniProt Q8NB16 179-471, looked up)
chain: YLPPKCMQEIPQEQIKEIKKEQLSGSPWILLRENEVSTLYKGEYHRAPVAIKVFKKLQAGSIAIVRQTFNKEIKTMKKFESPNILRIFGICIDETVTPPQFSIVMEYCELGTLRELLDREKDLTLGKRMVLVLGAARGLYRLHHSEAPELHGKIRSSNFLVTQGYQVKLAGFELRKTQEDMSLGTTREKTDRVKSTAYLSPQELEDVFYQYDVKSEIYSFGIVLWEIATGDIPFQGCNSEKIRKLVAVKRQQEPLGEDCPSELREIIDECRAHDPSVRPSVDEILKKLSTFSK
notes: Mixed lineage kinase domain-like protein (MLKL), human, kinase-like domain, residues 179-471, T357E/S358D; GST removed with HRV3C protease; residues of the site may remain at the N-terminus; source: Sf9 insect cells (baculovirus), purified (Glutathione Sepharose 4B, on-column HRV3C digestion, Superdex 75 or 200); not shown: GST, N-terminal, cleaved
- stoichiometry N [5]: 2

B3: human MLKL kinase-like domain, wild-type (179~471 aa), recombinant (domain or fragment, UniProt Q8NB16 179-471, looked up)
chain: B2 chain with E179T, D180S
notes: Mixed lineage kinase domain-like protein (MLKL), human, kinase-like domain, residues 179-471; residues of the site may remain at the N-terminus; also called MLKL KLD; WT; source: Sf9 insect cells (baculovirus), purified (Glutathione Sepharose 4B, on-column HRV3C digestion, Superdex 75 or 200); not shown: GST, N-terminal, cleaved
- stoichiometry N [6]: 2

From paper PMC8219780, “The MLKL kinase-like domain dimerization is an indispensable step of mammalian MLKL activation in necroptosis signaling” (Cell Death & Disease, 2021)
